The results in this text go back to patent US20140093973A1.

Test [1] concerns the target soluble HLA-A*0201 (sHLA-A*0201) (human).
Test [2] has the same target. The source holds these as a separate data set.
Test [3] shares this target. This is another data set of the same source.
For test [4] the target is unchanged. The source holds these as a separate data set.
For test [5] the target is unchanged. This is another data set of the same source.
Test [6] shares this target. The source holds these as a separate data set.
Test [7] has the same target. This is another data set of the same source.
Test [8] has the same target. This is another data set of the same source.
The target is the same in test [9]. The source holds these as a separate data set.
For test [10] the target is unchanged. This is another data set of the same source.
Test [11] shares this target. The source holds these as a separate data set.
The target is the same in test [12]. The source holds these as a separate data set.
Test [13] has the same target. The source holds these as a separate data set.
Test [14] shares this target. The source holds these as a separate data set.
The target is the same in test [15]. This is another data set of the same source.
For test [16] the target is unchanged. The source holds these as a separate data set.
Test [17] shares this target. The source holds these as a separate data set.
Test [18] has the same target. In words: standardized FP competition against 1 nM FITC-P5, 50 ug/mL sHLA-A*0201, excess b2m.
Test [19] shares this target. In words: FP kinetics, Kd = koff/kon.
Test [20] has the same target. In words: FP equilibrium titration with variable pFITC, 425 nM sHLA-A*0201, 20 C.
Test [21] has the same target. In words: FP real-time association kinetics, 50 ug/mL sHLA-A*0201, excess b2m, 20 C.
The target is the same in test [22]. In words: FP real-time association kinetics, intercept of kob against ligand concentration.
Test [23] has the same target. In words: FP, pFITC P4 titrated at 425 nM (20 µg/ml) sHLA-A*0201; FPmin = 27.00 mP.
Test [24] has the same target. In words: FP, sHLA-A*0201 titrated against 10 nM FITC-labeled P4, plateau of the fit.
For test [25] the target is unchanged. In words: FP saturation isotherm (bound against free pFITC), 425 nM sHLA-A*0201, one-site fit.
Test [26] shares this target. In words: FP, sHLA-A*0201 titrated against 10 nM FITC-labeled P4; the EC50 is an sHLA concentration.

“And” between values parts separate entries of the source, which are not always exact repeats. Identical values can stand only once. Like-named read-outs stand apart in the source and are kept apart here. Ends that are not written are not given here. * marks the point of attachment. FITC = O=C1OC2(c3ccc(O)cc3Oc3cc(O)ccc32)c2ccc(NC(=S)*)cc21 Where only a bound is given, the exact number is not on record here.

Turning to KLGEFYNQMM (modifications not checked), the IC50 (commonly the concentration that inhibits the measured activity by half) was 2820 nM in test [1]; 2480 to 10500 nM in test [2]; 596 nM in test [3]; 3060 nM in [5]; 10500 nM in test [7]; 2480 nM in [8]. Also, the half-maximal inhibitory concentration (IC50) was 2870 nM in test [9] and 7670 nM in test [10]. Besides, the log IC50 was 3.31 log nM and 3.7 log nM and 3.67 log nM in test [4]; 3.08 log nM and 3.45 log nM in test [6].
DLVHFASPL (modifications not checked) registered an IC50 in test [1] of 366000 nM.
Turning to ALMDKVLK(FITC)V [A*0201/P5, FITC-labeled peptide ALMDKVL-K(FITC)-V], in test [11], the Kd (commonly a measure of binding affinity in units of concentration) stood at 17.3 nM. The molecule also registered a % binding in [12] of 40%. Also, the maximal FP signal in test [13] is 220 to 230 mP. In [14], this molecule displayed an increase of signal upon binding above 900% and a maximum polarization signal of 245 mP. For the same molecule, the EC50 (as a rule, the concentration at which the effect is half-maximal) in test [15] amounted to 327 nM. The same molecule displayed an FPmax in test [16] of 195 mP. Besides, in test [17], the Bmax turned out to be 141 nM and the Kd came out at 17.3 nM.
Molecule YLLPAIVHI (modifications not checked) gave an IC50 in test [18] of 510 nM.
Take LVFGKEVVEV (not fully specified) [A*0201/P4, FITC-labeled peptide …]: the dissociation constant (Kd) was determined as 28.5 nM in test [19], 21.8 nM in test [20] and 21.8 nM in [25]. Besides, in test [21], the on-rate constant (kon) (in general, a measure of how fast the partners come together) is 9900 M⁻¹ s⁻¹. Also, in test [22], the dissociation rate constant (koff) (commonly the first-order rate constant of dissociation) is 0.000284 s⁻¹. For the same molecule, the FPmax in test [23] came to 200 mP; in [24], 230 mP. For the same molecule, the Bmax in [25] turned out to be 89.7 nM. For the same molecule, the EC50 in [26] came to 283 nM.
